Values of other authors, collected in paper PMC7481795.
Where two headings read alike, the source gives them in different places.

Key:
[1] = target: β-glucuronidase (Homo sapiens) (UniProt P08236)
[2] = target: β-glucuronidase (Homo sapiens) (UniProt P08236); remark: listed apart in the source

Sequence of β-glucuronidase (Homo sapiens) (P08236 23-651): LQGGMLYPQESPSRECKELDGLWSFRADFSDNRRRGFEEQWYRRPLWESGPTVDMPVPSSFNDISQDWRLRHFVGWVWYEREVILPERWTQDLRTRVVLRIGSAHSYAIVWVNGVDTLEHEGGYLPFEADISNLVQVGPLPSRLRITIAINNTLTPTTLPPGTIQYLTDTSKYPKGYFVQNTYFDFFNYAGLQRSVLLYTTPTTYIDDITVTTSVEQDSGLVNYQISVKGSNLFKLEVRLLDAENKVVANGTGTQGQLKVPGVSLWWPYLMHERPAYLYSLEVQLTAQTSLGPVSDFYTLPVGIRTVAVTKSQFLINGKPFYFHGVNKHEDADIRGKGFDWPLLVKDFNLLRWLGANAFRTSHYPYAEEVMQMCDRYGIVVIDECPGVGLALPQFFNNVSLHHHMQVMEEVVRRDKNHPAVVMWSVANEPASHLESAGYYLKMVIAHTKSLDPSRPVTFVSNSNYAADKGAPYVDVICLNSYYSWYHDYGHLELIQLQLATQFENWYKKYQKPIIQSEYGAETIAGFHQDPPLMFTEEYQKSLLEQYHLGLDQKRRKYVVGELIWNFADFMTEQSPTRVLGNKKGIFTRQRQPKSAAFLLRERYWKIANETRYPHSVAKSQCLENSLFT
Sequence of cation-independent mannose 6-phosphate receptor domains 1-3 (P08169 45-477): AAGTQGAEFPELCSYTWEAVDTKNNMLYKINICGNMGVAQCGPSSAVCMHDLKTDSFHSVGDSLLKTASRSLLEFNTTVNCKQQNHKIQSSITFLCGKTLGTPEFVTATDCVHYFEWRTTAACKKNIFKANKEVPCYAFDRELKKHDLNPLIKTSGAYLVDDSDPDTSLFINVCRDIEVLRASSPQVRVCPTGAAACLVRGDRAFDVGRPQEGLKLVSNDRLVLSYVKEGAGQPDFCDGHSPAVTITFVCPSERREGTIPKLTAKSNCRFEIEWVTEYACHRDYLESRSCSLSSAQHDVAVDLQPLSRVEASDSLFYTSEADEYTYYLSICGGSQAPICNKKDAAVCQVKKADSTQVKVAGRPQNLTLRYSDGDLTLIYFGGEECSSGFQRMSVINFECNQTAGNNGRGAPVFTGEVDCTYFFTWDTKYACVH
Sequence of cation-independent mannose 6-phosphate receptor domain 3 (P08169 332-477): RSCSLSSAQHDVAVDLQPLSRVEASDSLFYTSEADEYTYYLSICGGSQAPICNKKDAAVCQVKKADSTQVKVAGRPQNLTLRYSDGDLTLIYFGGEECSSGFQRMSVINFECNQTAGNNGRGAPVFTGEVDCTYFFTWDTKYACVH

Kd [1] [nM] | Kd [2] [nM] | Substance
500 |  | cation-independent mannose 6-phosphate receptor domain 3 (from UniProt P08169)
 | 0.5 | cation-independent mannose 6-phosphate receptor domains 1-3 (from UniProt P08169)
